Measurements published in PMC8635976, “Ca^2+/CaM binding to CaMKI promotes IMA-3 importin binding and nuclear translocation in sensory neurons to control behavioral adaptation” (eLife, 2021).
Positions count from the first letter of the chain named. In names and notes the source's numbering stands.

T1: IMA-3-His6 (IMA-3 importin-α) (C. elegans, UniProt Q19969 1-514, labeled using the RED-tris-NTA His tag protein labeling kit)
T1 construct: IMA-3, importin-α of C. elegans; also called HisTag::IMA-3; source: E. coli BL21 (DE3), purified (Ni-NTA, desalting spin column)
T1 sequence (looked up): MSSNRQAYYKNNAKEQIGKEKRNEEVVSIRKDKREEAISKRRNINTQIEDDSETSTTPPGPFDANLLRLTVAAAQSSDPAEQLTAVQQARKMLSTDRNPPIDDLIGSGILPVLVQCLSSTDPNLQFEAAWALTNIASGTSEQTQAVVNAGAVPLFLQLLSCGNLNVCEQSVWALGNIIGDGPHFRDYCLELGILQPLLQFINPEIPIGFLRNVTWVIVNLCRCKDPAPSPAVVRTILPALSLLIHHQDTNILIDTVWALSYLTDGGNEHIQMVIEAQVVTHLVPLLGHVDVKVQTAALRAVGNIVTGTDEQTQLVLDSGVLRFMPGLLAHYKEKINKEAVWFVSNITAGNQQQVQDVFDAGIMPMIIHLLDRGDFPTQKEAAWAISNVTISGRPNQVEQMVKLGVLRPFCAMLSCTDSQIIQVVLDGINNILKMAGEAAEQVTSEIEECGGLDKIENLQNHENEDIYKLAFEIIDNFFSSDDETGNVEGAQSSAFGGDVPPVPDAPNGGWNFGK

B1: CMK-1(wt), calcium/calmodulin-dependent protein kinase-1 (enzyme, C. elegans, UniProt Q9TXJ0 1-348, looked up)
chain: MPLFKRRDGSGPAPNATIREKYDFRDVLGTGAFSKVFLAESKSDAGQMYAVKCIDKKALKGKEESLENEIKVLRKLRHNNIVQLFDTYDEKQFVYLVMELVTGGELFDRIVAKGSYTEQDASNLIRQVLEAVGFMHDNGVVHRDLKPENLLYYNQDEDSKIMISDFGLSKTEDSGVMATACGTPGYVAPEVLQQKPYGKAVDVWSIGVIAYILLCGYPPFYDESDANLFAQIIKGEYEFDAPYWDQISDSAKDFITHLMCCDPEARFTCQDALSHPWISGNTAYTHDIHGTVAVHLKKSLAKRNWKKAYNAAAAIRQLQMLRLSSNSNRLQKQASQQQPEPPTPAFHA
notes: CMK-1 of C. elegans, ortholog of mammalian CaMKI/IV; cmk-1 cds inserted in pDK2409 (plasmid dg922 [cmk-1(wt)::GST-TEV]); TEV cleavage removes the GST tag to recover untagged CMK-1; also called CaMKI; source: E. coli BL21 (DE3), purified (Glutathione beads, eluted by TEV cleavage)
B2: CMK-1(K71A/R74Q/R77S) (enzyme, C. elegans, UniProt Q9TXJ0 1-348, looked up)
chain: B1 chain with K71A, R74Q, R77S
notes: CMK-1 of C. elegans with three point mutations in the NLS 71-78; plasmid dg929 [cmk-1(K71A/R74Q/R77S)::GST-TEV] made by site-directed mutagenesis from dg922; TEV cleavage removes the GST tag; also called NLS71-78 mutant CMK-1; CMK-1 (K71A/R74Q/R77S) triple mutant; source: E. coli BL21 (DE3), purified (Glutathione beads, eluted by TEV cleavage)

Assays:
Conditions in all cases: both partners purified
[1] = biological target: T1, IMA-3-His6 (IMA-3 importin-α); test: MST; Monolith NT.115; RED-tris-NTA labeled IMA-3-His6 at 100 nM, serial dilution of unlabeled CMK-1 in 1x PBS with 0.05% Tween 20; 40% laser power; with 2 mM Ca2+, no CaM
[2] = biological target: T1, IMA-3-His6 (IMA-3 importin-α); test: MST; Monolith NT.115; RED-tris-NTA labeled IMA-3-His6 at 100 nM, serial dilution of unlabeled CMK-1 in 1x PBS with 0.05% Tween 20; 40% laser power; no Ca2+, no CaM; triplicates
[3] = biological target: T1, IMA-3-His6 (IMA-3 importin-α); test: MST; Monolith NT.115; RED-tris-NTA labeled IMA-3-His6 at 100 nM, serial dilution of unlabeled CMK-1 in 1x PBS with 0.05% Tween 20; 40% laser power; with 2 mM CaCl2 and 8 µM CaM; triplicates

Binder | Kd [1] [nM] | Kd [2] [nM] | Kd [3] [nM]
B1 | 1140 | 1540 | 450
B2 |  | 1220 | 1000
